Where two headings read alike, the source gives them in different places. Where no end group is shown, it is not given here. The star is where a group is joined. FITC = O=C1OC2(c3ccc(O)cc3Oc3cc(O)ccc32)c2ccc(NC(=S)*)cc21; βAla = NCCC(=O)O
Key:
E. coli His6-LpxD [1] = molecular target: T1, E. coli His6-LpxD (Escherichia coli, UniProt P21645); assay: biochemical; assay type: binding
E. coli His6-LpxD [2] = molecular target: T1, E. coli His6-LpxD; assay: Fluorescence polarization direct binding of FITC-labeled peptide to His6-LpxD; details: at up to 180 μM LpxD
E. coli LpxA = E. coli LpxA (Escherichia coli, UniProt P0A722); assay: Fluorescence polarization competition binding assay, LpxA
LpxA = LpxA (Escherichia coli, UniProt P0A722); assay: Continuous fluorescent acyltransferase inhibition assay; assay type: biochemical, E. coli; details: pH 7.5
[3] = molecular target: T2, E. coli His6-LpxD (UDP-3-O-(R-3-hydroxyacyl)glucosamine N-acyltransferase) (E. coli, UniProt P21645 1-341); assay: fluorescence polarisation
T2 sequence (looked up): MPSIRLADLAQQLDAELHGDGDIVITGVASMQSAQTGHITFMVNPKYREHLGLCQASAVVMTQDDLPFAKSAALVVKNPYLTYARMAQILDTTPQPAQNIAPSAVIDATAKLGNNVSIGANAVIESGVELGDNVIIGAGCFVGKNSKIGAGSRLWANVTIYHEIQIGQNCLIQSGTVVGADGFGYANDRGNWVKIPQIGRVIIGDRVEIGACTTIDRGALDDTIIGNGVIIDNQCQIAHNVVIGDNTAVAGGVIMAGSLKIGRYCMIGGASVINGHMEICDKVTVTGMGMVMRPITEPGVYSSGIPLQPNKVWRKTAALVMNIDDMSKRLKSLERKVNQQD

[4] = molecular target: T2, E. coli His6-LpxD …; assay: fluorescence polarisation; remark: listed apart in the source
[5] = molecular target: T3, E. coli LpxA (UDP-N-acetylglucosamine acyltransferase), native (E. coli, UniProt P0A722 1-262); assay: fluorescence polarisation
T3 sequence (looked up): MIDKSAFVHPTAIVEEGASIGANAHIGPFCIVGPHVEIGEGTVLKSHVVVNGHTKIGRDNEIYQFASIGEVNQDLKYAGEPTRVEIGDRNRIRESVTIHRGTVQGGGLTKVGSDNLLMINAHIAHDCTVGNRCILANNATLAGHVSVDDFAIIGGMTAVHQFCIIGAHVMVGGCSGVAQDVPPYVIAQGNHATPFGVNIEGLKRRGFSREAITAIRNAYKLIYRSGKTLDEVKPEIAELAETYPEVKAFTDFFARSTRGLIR

For `CC[C@H](C)[C@H](NC(=O)[C@@H]1CCCN1C(=O)[C@H](CC(=O)O)NC(=O)[C@H](CC(C)C)NC(=O)[C@H](CCSC)NC(=O)[C@H](Cc1c[nH]c2ccccc12)NC(=O)CNC(=O)[C@H](CO)NC(=O)[C@@H](N)CO)C(=O)N[C@@H](C)C(=O)NCC(=O)N[C@@H](CCCCN)C(=O)N[C@@H](Cc1c[nH]c2ccccc12)C(=O)N[C@@H](CO)C(=O)N[C@@H](CCCNC(=N)N)C(N)=O` [P920], which Kd (E. coli His6-LpxD [1]) is on record?
The Kd was greater than 300 µM.

β-alanyl-fluorescein was tested. Which “ΔmP with LpxD, fluorophore alone” value (E. coli His6-LpxD [2]) did it give?
The value was ~ 26 mP.

For SENNFMLPLLPL-NH2 [RJPXD34], which Kd (E. coli LpxA) is on record?
Its Kd is greater than 300 µM.

What about the “LpxA IC50” value (LpxA) of the same molecule?
Its value is “did not inhibit”.

B1: FITC-RJPXD33 (FITC-(βA)TNLYMLPKWDIP-NH2) (peptide)
peptide: {FITC-βAla}-TNLYMLPKWDIP-NH2
SMILES: CC[C@H](C)[C@H](NC(=O)[C@H](CC(=O)O)NC(=O)[C@H](Cc1c[nH]c2ccccc12)NC(=O)[C@H](CCCCN)NC(=O)[C@@H]1CCCN1C(=O)[C@H](CC(C)C)NC(=O)[C@H](CCSC)NC(=O)[C@H](Cc1ccc(O)cc1)NC(=O)[C@H](CC(C)C)NC(=O)[C@H](CC(N)=O)NC(=O)[C@@H](NC(=O)CCNC(=S)Nc1ccc2c(c1)C(=O)OC21c2ccc(O)cc2Oc2cc(O)ccc21)[C@@H](C)O)C(=O)N1CCC[C@H]1C(N)=O
How did the Kd [3] turn out when B1 was run?
Its Kd is 0.6 ± 0.04 µM.

How did the Kd [4] turn out when QHFMVPDINDMQ-NH2 [RJPXD31 (QHFMVPDINDMQ-NH2)] was run?
The Kd was 41 ± 3 µM.

And the Kd [5]?
Its Kd is 119 ± 9 µM.

For TNLYMLPKWDIP-NH2 [RJPXD33 (TNLYMLPKWDIP-NH2)], which Kd [4] is on record?
Its Kd is 6.5 ± 0.2 µM.

And the Kd [5]?
The Kd was 22 ± 2.1 µM.

For SENNFMLPLLPL-NH2 [RJPXD34 (SENNFMLPLLPL-NH2)], which Kd [4] is on record?
Its Kd is 31 ± 1.5 µM.
